Results: patent US8530213B2, “Compositions and methods for using NADH oxidases” (Georgia Tech Research Corporation, priority 2009, dated 2013)

Experiments:
[1] = NOX5 mutants assayed at the cell lysate level, NADH activity; format: biochemical
Protocol: (§1) Standard assays were performed at 25° C. in 100 mM TEA buffer (pH 7.5) with 5 mM DTT in cuvettes with either a 1 cm or 1 mm path length, depending on the concentration of substrate. Initial activity was measured by following the absorbance change using a Beckman Coulter DU 800 UV/Vis spectrophotometer at 340 nm. Activity of the enzyme was calculated using an extinction coefficient of NAD(P)H, ε, as 6.22 mM^−1 cm^−1. Unless otherwise noted, a substrate concentration of 0.2 mM NADPH was used for assays. 1 unit (U) of activity is defined as […].
(§2) Single mutations were done on residues G178 and L179 into K, R and K, R, H respectively, and double mutations were also investigated with different combinations of the single mutations. The mutation of G178H was excluded due to the fact that the enzyme would then have two histidines next to each other, creating steric hindrance in the binding pocket. The resulting mutants were expressed on small scale and assayed at the cell lysate level.

[2] = NOX5 mutants assayed at the cell lysate level, NADPH activity; format: biochemical
Protocol: as §1, §2

[3] = Kinetic parameters of purified NADH oxidases, substrate NADH; format: biochemical; conditions: purified enzyme, excess of oxygen
Protocol: as §1
[…] This was conducted with an excess of oxygen present in the system. The reaction was initiated by mixing two separate 2× solutions of each the substrate and enzyme. The specific activity was measured, and the kinetic parameters were calculated from that data.
The data was fitted with four different models: non-linear Michaelis-Menten, Lineweaver-Burk, Eadie-Hofstee and Hanes. Through non-linear fitting, kcat and KM of the wild type were measured to be 211.6 s^−1 and 50.2 μM, respectively with an R^2 of 0.998. (FIG. 5).

[4] = Total turnover number (TTN), NADH; format: biochemical; set-up: key: TTN = change in NAD(P)H concentration / amount of enzyme
Protocol: Standard kinetic assays were performed with small amounts of enzyme. Assays were carried out for two to three hours until there was no more enzymatic conversion of the substrate.
Total turnover number (TTN) is a measurement of catalyst productivity. For biocatalysts, TTN is defined as the total amount of product produced over the lifetime of an enzyme. […] […] (data not shown).
This experiment was repeated to see if the presence of reducing agents had any effect on the total turnover number. The stock solution of enzyme was dialyzed against 250 mL of 10 mM Tris-HCl (pH 7.5) for two hours. The solution was then exchanged and dialyzed for an additional 2 hours. The TTN was then measured with the dialyzed enzyme with and without reducing agents. DTT and β-mercaptoethanol (β-ME) were used at a concentration of 5 mM. The TTN for the sample with no reducing agents, DTT and β-ME were 128,000, 168,000 and 107,000, respectively.

[5] = pH activity profile; format: biochemical; conditions: 25° C., 100 mM buffers
Protocol: as §1
Enzyme pH activity profiles were obtained at 25° C. using 100 mM buffers with the following salts: sodium citrate from pH 4.0 to pH 6.5; sodium phosphate from pH 6.0 to pH 8.0; TEA from pH 7.0 to pH 8.0; Tris-HCl from pH 7.0 to pH 9.0; glycine from pH 9.0 to pH 10.0.

[6] = Temperature activity profile; format: biochemical
Protocol: as §1
Temperature dependent activity was studied by incubating the enzyme at different temperatures. After one minute of incubation, the standard assay was carried out. A temperature range of 10 to 55° C. was chosen for this study.

[7] = Temperature stability (30 minutes incubation, assayed at 25° C.); format: physicochemical
Protocol: Temperature stability was studied by incubating the enzyme at various temperatures for 30 minutes. The enzyme solution was then cooled down and assayed at 25° C. This study covered a temperature range of 15° C. to 55° C.

[8] = Amplex Red assay of H2O2 produced during turnover; format: biochemical; conditions: 50 mM sodium phosphate buffer (pH 7.4)
Protocol: An Amplex Red Hydrogen Peroxide/Peroxidase Assay Kit (Invitrogen) was used to determine the amount of hydrogen peroxide (H2O2) produced during turnover. Various amounts of substrates were reacted and assayed to detect the presence of H2O2. The reactions were carried out in the provided 50 mM sodium phosphate buffer (pH 7.4). Standards for the calibration curve were made with the same reaction buffer.
To determine whether NOX5 is a water or hydrogen peroxide producing enzyme, an amplex red assay was performed. The presence of H2O2 can be confirmed by incubating the standard assay mixture with amplex red and peroxidase. Produced resorufin can be detected using a fluorescence spectroscopy analysis.

B1: NOX5: NADH oxidase V from Lactobacillus plantarum, wild type, 49 kDa, SEQ ID NO: 1 (protein, listed as Lactobacillus plantarum)
chain: MKVIVIGCTHAGTAAVNQILASNPDTEVTIYERNDNVSFLSCGIALYLGGQVADPQGLFYSSPEQLAKLGATVHMQHDVTDVNTDKHEITVTDLKTGESKTDHYDKLVVTTGSWPVIPPIDGIDSPNVYLCKNWTHAQNLWEAAKPAKRVIVIGGGYIGTELVEAYQKQGKEVTLIDGLPRILNKYLDKEFTDRVEQDFVDHGIKMALNQMVQGFSDDGKEVTVKTDKGSYTADMAILCVGFRPNTGLLKGKVDMNANGSIKTNDYMQTSDPDIYGAGDSVAVHYNPTKKDAYIPLATNAVRQGTLVGLNIFKPTRKYMGTQSTSGLMLFGQTIVSSGMTLEHAQAENVPAAAVTFEDNYRPEFMPTTKPVLMQLVYNPETREILGAQFMSEHDVSQSANVISVMIQNHNTIDDLGFVDMFFQPIYDRPFNYLNLLGQAAIAHAAEAVTE
[1]
  NADH activity: 10.0 U/mg
[2]
  NADPH activity: 0.00 U/mg
[3]
  Km: 50.2 µM
  kcat, NADH: 211.6 s⁻¹
[4]; 5 mM DTT, 25° C., listed as NOX5 WT
  TTN with DTT, NADH: 168,000
[4]; 5 mM β-ME, dialyzed enzyme
  TTN with β-mercaptoethanol (β-ME): 107,000
[4]; no reducing agents
  TTN, NADH: 128,000
[5]
  pH of maximum activity: 7.5
[6]; Arrhenius model
  activation energy, Ea: 7.82 kcal/mol
  deactivation energy, Ed: -22.4 kcal/mol
[6]; range 10 to 55° C., one minute of incubation
  temperature of maximum instantaneous activity: 40 °C
[7]
  Enthalpy of deactivation, ΔH: 1.19 kcal/mol
[7]; 55° C.
  activity at 55° C.: inactive
[7]; 30 minutes incubation
  T50^30, temperature that exhibited half of the original activity: 45 °C
[8]
  H2O2 produced, ratio of NADH: 2.63%
